Assay [1] deals with full-length FLAG-tagged Orai1 purified from insect cells (human, UniProt Q96D31 1-301). As to the kind of experiment: pull-down.
In assay [2] the target is full-length FLAG-tagged STIM1 purified from insect cells (human, UniProt Q13586 23-685). As to the kind of experiment: pull-down.

This is an account of results in PMC2875865 (Nature cell biology, 2010).

full-length FLAG-tagged Orai1 purified from insect cells, sequence (Q96D31 whole entry): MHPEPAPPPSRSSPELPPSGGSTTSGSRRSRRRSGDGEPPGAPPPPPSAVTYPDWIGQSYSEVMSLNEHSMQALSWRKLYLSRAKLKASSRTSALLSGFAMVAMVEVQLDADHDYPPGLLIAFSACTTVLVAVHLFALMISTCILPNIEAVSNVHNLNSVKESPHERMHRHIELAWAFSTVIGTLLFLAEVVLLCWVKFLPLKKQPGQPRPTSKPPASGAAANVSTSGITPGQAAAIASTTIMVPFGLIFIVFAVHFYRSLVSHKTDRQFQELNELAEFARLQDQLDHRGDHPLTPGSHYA
full-length FLAG-tagged STIM1 purified from insect cells, sequence (Q13586 23-685): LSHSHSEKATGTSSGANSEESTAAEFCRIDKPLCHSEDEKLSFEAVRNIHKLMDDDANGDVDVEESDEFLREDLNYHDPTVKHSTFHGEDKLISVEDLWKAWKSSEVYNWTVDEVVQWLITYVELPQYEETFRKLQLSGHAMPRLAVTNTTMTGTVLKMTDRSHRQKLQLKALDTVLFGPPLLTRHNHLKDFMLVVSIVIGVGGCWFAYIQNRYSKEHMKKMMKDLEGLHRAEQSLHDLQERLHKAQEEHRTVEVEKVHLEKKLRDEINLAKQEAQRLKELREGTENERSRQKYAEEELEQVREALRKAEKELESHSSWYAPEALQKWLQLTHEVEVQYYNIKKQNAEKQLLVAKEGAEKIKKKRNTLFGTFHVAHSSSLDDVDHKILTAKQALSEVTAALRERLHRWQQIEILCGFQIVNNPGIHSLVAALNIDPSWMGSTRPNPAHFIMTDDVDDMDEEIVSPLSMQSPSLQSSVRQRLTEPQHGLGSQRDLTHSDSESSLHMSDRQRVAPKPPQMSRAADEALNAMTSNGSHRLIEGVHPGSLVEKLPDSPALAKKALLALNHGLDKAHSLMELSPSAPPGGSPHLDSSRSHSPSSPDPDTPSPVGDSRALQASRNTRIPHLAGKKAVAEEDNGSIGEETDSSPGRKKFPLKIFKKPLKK

B1: GST-fused STIM1 serine/threonine rich sequence (S/T) (domain or fragment)
chain: SSLDDVDHKILTAKQALSEVTAALRERLHRWQQIEILCGFQIVNNPGIHSLVAALNIDPSWMGSTRPNPAHFIMTDDVDDMDEEIVSPLSMQSPSLQSSVRQRLTEPQHGLGSQRDLTHSDSESSLHMSDRQRVAPKPPQMSRAADEALNAMTSNGSHRLIEGVHPGSLVEKLPDSPALAKKALLALNHGLDKAHSLMELS
Turning to B1, the binding result in assay [1] and in assay [2] was “binds” each time.
